Experimental findings from paper doi:10.1101/2020.10.16.20213991 (medRxiv, 2020) are described below.

This data set concerns the molecule itself. Nature of the data set: SEC.

B1: cowpea chlorotic mottle virus (CCMV) coat protein (natural protein)
chain: MSTVGTGKLTRAQRRAAARKNKRNTRVVQPVIVEPIASGQGKAIKAWTGYSVSKWTASCAAAEAKVTSAITISLPNELSSERNKQLKVGRVLLWLGLLPSVSGTVKSCVTETQTTAAASFQVALAVADNSKDVVAAMYPEAFKGITLEQLTADLTIYLYSSAALTEGDVIVHLEVEHVRPTFDDSFTPVY
Consider B1, for which the binding result is “binds”.
